Target: Ub(1-76)-aminoluciferin (human) (UniProt P0CG48)
Assay: cell-based or functional assay

fold decrease in limit of detection against Z-RLRGG-amino-luciferin: 1000 fold
Substance: UCHL3 (ubiquitin carboxyl-terminal hydrolase isozyme L3) (from UniProt P15374 1-230) (enzyme)

— patent publication US20120058499A1, “Bioluminescent Detection of Protease Activity” (priority 2010, published 2012)
